Ends that are not written are not given here. * marks the point of attachment. Biotin = O=C1N[C@H]2[C@H](CS[C@H]2CCCCC(=O)*)N1
Assays:
Experiment in all cases: peptide or protein array; E. coli proteome chip: purified His-tagged proteins printed in duplicate on Fullmoon slides, blocked with 1% BSA; 10 nM N-terminal biotinylated LfcinB with 1% BSA, room temperature, 1 h; detected with DyLight 649-labeled streptavidin, ratio to DyLight 549-labeled anti-His antibody; ProCAT normalisation, local cut-off; triplicate chips
Conditions in all cases: both partners purified
YrfI = biological target: T1, YrfI (E. coli K-12, UniProt P0A6Y5 1-292)
T1 construct: YrfI, E. coli K-12
T1 sequence (looked up): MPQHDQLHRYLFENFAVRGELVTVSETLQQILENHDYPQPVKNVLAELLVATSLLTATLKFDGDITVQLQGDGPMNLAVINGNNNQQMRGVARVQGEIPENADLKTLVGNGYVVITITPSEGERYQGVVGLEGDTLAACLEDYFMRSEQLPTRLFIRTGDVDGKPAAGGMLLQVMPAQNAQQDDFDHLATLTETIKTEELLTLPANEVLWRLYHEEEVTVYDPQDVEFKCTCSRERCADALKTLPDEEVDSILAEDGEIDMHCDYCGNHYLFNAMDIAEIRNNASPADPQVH

YbeY = biological target: T2, YbeY (E. coli K-12, UniProt P0A898 1-155)
T2 construct: YbeY, E. coli K-12

YjhI = biological target: T3, YjhI (E. coli K-12, UniProt P39360 1-262)
T3 construct: YjhI, E. coli K-12
T3 sequence (looked up): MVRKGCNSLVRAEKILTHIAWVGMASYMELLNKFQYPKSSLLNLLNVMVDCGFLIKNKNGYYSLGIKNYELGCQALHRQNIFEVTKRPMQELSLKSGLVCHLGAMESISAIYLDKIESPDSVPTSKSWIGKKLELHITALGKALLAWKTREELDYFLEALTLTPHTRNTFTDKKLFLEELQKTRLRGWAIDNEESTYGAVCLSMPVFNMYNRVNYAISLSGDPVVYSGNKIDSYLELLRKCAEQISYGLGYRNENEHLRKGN

[1] = biological target: T4, phosphoenolpyruvate carboxylase (E. coli K-12, UniProt P00864 1-883)
T4 construct: Ppc, phosphoenolpyruvate carboxylase, E. coli K-12; also called Ppc
T4 sequence (looked up): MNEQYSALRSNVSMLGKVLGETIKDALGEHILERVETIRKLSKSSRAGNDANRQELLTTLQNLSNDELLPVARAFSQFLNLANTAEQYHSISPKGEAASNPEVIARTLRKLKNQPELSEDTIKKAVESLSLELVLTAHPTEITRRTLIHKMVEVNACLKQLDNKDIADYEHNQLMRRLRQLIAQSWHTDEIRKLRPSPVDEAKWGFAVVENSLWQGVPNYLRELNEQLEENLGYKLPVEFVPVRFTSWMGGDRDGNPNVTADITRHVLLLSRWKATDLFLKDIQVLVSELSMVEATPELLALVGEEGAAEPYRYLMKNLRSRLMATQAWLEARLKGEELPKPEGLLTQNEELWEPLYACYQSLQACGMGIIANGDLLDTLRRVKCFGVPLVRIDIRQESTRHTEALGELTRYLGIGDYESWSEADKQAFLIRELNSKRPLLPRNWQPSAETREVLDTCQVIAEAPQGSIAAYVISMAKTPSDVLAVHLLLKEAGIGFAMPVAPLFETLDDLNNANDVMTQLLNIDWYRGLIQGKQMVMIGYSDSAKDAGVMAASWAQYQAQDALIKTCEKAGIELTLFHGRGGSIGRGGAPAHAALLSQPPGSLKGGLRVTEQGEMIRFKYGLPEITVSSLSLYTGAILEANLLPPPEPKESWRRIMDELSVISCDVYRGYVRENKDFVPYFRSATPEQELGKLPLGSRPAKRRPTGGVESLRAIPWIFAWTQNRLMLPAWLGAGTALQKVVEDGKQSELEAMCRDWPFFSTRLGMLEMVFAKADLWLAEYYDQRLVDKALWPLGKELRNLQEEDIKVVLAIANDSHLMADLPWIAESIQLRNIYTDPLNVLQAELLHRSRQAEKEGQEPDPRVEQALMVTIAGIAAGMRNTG

Sun = biological target: T5, Sun (E. coli K-12, UniProt P36929 1-429)
T5 construct: Sun, E. coli K-12
T5 sequence (looked up): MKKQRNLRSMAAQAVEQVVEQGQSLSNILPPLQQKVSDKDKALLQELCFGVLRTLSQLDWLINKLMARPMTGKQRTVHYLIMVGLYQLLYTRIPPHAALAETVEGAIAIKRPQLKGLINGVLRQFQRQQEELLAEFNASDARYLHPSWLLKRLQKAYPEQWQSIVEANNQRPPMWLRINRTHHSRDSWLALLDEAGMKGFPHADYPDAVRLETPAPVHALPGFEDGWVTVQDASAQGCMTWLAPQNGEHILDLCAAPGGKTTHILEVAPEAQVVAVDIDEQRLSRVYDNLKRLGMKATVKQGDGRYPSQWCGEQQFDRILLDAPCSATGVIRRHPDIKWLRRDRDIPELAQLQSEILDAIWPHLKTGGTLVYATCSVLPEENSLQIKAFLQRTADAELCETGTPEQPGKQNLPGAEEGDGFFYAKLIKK

Measured: binding result

T2 sequence (P0A898 whole entry): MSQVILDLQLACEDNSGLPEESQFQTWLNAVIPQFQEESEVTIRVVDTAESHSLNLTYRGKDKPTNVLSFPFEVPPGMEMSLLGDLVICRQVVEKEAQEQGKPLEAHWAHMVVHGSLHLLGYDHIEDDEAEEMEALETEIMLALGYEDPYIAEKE

B1: N-terminal biotinylated Lactoferricin B (peptide, UniProt P24627 36-60, looked up)
peptide: Biotin-FKCRRWQWRMKKLGAPSITCVRRAF
modifications: ends and bridges not checked
notes: lactoferricin B (LfcinB), cationic antimicrobial peptide of 25 amino acids; also called biotinylated LfcinB; biotin-labeled LfcinB; source: bought: Kelowna Inc
binds: all assays above

From paper PMC3229523, “Identification of Lactoferricin B Intracellular Targets Using an Escherichia coli Proteome Chip” (PLoS ONE, 2011)
